Test results taken from patent publication US20240132485A1, “HETEROCYCLIC CULLIN RING UBIQUITIN LIGASE COMPOUNDS AND USES THEREOF” (CEMM - FORSCHUNGSZENTRUM FÜR MOLEKULARE MEDIZIN GMBH, priority 2020, published 2024).

Assays:
[1] = biological target: Nanoluc_DDB1 (N-terminal Nanoluc luciferase, G4S linker, DDB1 (FL)) (UniProt Q16531); assay: NanoBRET in HEK293T cells, 10 µM compound Example 3-3; class D = 1-2 fold increase
[2] = biological target: Nanoluc_DDB1 (N-terminal Nanoluc luciferase, G4S linker, DDB1 (FL)) (UniProt Q16531); assay: NanoBRET in HEK293T cells, 10 µM compound Example 3-5; class B = 3-4 fold increase
[3] = biological target: Nanoluc_DDB1 (N-terminal Nanoluc luciferase, G4S linker, DDB1 (FL)) (UniProt Q16531); assay: NanoBRET in HEK293T cells, 10 µM compound Example 3-13; class B = 3-4 fold increase
[4] = biological target: Nanoluc_DDB1 (N-terminal Nanoluc luciferase, G4S linker, DDB1 (FL)) (UniProt Q16531); assay: NanoBRET in HEK293T cells, 10 µM compound Example 3-26; class C = 2-3 fold increase
[5] = biological target: Nanoluc_DDB1 (N-terminal Nanoluc luciferase, G4S linker, DDB1 (FL)) (UniProt Q16531); assay: NanoBRET in HEK293T cells, 10 µM compound Example 3-37; class C = 2-3 fold increase
[6] = biological target: Nanoluc_DDB1 (N-terminal Nanoluc luciferase, G4S linker, DDB1 (FL)) (UniProt Q16531); assay: NanoBRET in HEK293T cells, 10 µM compound Example 3-40; class B = 3-4 fold increase
[7] = biological target: Nanoluc_DDB1 (N-terminal Nanoluc luciferase, G4S linker, DDB1 (FL)) (UniProt Q16531); assay: NanoBRET in HEK293T cells, 10 µM compound Example 3-41; class C = 2-3 fold increase
[8] = biological target: Nanoluc_DDB1 (N-terminal Nanoluc luciferase, G4S linker, DDB1 (FL)) (UniProt Q16531); assay: NanoBRET in HEK293T cells, 10 µM compound Example 3-55; class B = 3-4 fold increase
[9] = biological target: Nanoluc_DDB1 (N-terminal Nanoluc luciferase, G4S linker, DDB1 (FL)) (UniProt Q16531); assay: NanoBRET in HEK293T cells, 10 µM compound Example 3-56; class C = 2-3 fold increase
[10] = biological target: Nanoluc_DDB1 (N-terminal Nanoluc luciferase, G4S linker, DDB1 (FL)) (UniProt Q16531); assay: NanoBRET in HEK293T cells, 10 µM compound Example 3-58; class C = 2-3 fold increase
[11] = biological target: Nanoluc_DDB1 (N-terminal Nanoluc luciferase, G4S linker, DDB1 (FL)) (UniProt Q16531); assay: NanoBRET in HEK293T cells, 10 µM compound Example 3-59; class C = 2-3 fold increase
[12] = biological target: Nanoluc_DDB1 (N-terminal Nanoluc luciferase, G4S linker, DDB1 (FL)) (UniProt Q16531); assay: NanoBRET in HEK293T cells, 10 µM compound Example 3-60; class C = 2-3 fold increase
[13] = biological target: Nanoluc_DDB1 (N-terminal Nanoluc luciferase, G4S linker, DDB1 (FL)) (UniProt Q16531); assay: NanoBRET in HEK293T cells, 10 µM compound Example 3-65; class B = 3-4 fold increase
[14] = biological target: Nanoluc_DDB1 (N-terminal Nanoluc luciferase, G4S linker, DDB1 (FL)) (UniProt Q16531); assay: NanoBRET in HEK293T cells, 10-point titration of compound Example 3-3; class E = >10 µM
[15] = biological target: Nanoluc_DDB1 (N-terminal Nanoluc luciferase, G4S linker, DDB1 (FL)) (UniProt Q16531); assay: NanoBRET in HEK293T cells, 10-point titration of compound Example 3-64; class E = >10 µM
[16] = biological target: Nanoluc_DDB1 (N-terminal Nanoluc luciferase, G4S linker, DDB1 (FL)) (UniProt Q16531); assay: NanoBRET in HEK293T cells, 10 µM compound Example 3-4; class A = greater than 4-fold increase
[17] = biological target: Nanoluc_DDB1 (N-terminal Nanoluc luciferase, G4S linker, DDB1 (FL)) (UniProt Q16531); assay: NanoBRET in HEK293T cells, 10 µM compound Example 3-8; class A = greater than 4-fold increase
[18] = biological target: Nanoluc_DDB1 (N-terminal Nanoluc luciferase, G4S linker, DDB1 (FL)) (UniProt Q16531); assay: NanoBRET in HEK293T cells, 10 µM compound Example 3-33; class A = greater than 4-fold increase
[19] = biological target: Nanoluc_DDB1 (N-terminal Nanoluc luciferase, G4S linker, DDB1 (FL)) (UniProt Q16531); assay: NanoBRET in HEK293T cells, 10 µM compound Example 3-35; class A = greater than 4-fold increase
[20] = biological target: Nanoluc_DDB1 (N-terminal Nanoluc luciferase, G4S linker, DDB1 (FL)) (UniProt Q16531); assay: NanoBRET in HEK293T cells, 10 µM compound Example 3-44; class A = greater than 4-fold increase
[21] = biological target: Nanoluc_DDB1 (N-terminal Nanoluc luciferase, G4S linker, DDB1 (FL)) (UniProt Q16531); assay: NanoBRET in HEK293T cells, 10 µM compound Example 3-45; class A = greater than 4-fold increase
[22] = biological target: Nanoluc_DDB1 (N-terminal Nanoluc luciferase, G4S linker, DDB1 (FL)) (UniProt Q16531); assay: NanoBRET in HEK293T cells, 10 µM compound Example 3-62; class A = greater than 4-fold increase
[23] = biological target: Nanoluc_DDB1 (N-terminal Nanoluc luciferase, G4S linker, DDB1 (FL)) (UniProt Q16531); assay: NanoBRET in HEK293T cells, 10 µM compound Example 3-66; class A = greater than 4-fold increase
[24] = biological target: Nanoluc_DDB1 (N-terminal Nanoluc luciferase, G4S linker, DDB1 (FL)) (UniProt Q16531); assay: NanoBRET in HEK293T cells, 10-point titration of compound Example 3-4; class A = EC50<=0.25 µM
[25] = biological target: Nanoluc_DDB1 (N-terminal Nanoluc luciferase, G4S linker, DDB1 (FL)) (UniProt Q16531); assay: NanoBRET in HEK293T cells, 10-point titration of compound Example 3-35; class A = EC50<=0.25 µM
[26] = biological target: Nanoluc_DDB1 (N-terminal Nanoluc luciferase, G4S linker, DDB1 (FL)) (UniProt Q16531); assay: NanoBRET in HEK293T cells, 10-point titration of compound Example 3-52; class A = EC50<=0.25 µM

Chain of Nanoluc_DDB1 (N-terminal Nanoluc luciferase, G4S linker, DDB1 (FL)) (Q16531 other isoform, or with tags, fused parts or gaps): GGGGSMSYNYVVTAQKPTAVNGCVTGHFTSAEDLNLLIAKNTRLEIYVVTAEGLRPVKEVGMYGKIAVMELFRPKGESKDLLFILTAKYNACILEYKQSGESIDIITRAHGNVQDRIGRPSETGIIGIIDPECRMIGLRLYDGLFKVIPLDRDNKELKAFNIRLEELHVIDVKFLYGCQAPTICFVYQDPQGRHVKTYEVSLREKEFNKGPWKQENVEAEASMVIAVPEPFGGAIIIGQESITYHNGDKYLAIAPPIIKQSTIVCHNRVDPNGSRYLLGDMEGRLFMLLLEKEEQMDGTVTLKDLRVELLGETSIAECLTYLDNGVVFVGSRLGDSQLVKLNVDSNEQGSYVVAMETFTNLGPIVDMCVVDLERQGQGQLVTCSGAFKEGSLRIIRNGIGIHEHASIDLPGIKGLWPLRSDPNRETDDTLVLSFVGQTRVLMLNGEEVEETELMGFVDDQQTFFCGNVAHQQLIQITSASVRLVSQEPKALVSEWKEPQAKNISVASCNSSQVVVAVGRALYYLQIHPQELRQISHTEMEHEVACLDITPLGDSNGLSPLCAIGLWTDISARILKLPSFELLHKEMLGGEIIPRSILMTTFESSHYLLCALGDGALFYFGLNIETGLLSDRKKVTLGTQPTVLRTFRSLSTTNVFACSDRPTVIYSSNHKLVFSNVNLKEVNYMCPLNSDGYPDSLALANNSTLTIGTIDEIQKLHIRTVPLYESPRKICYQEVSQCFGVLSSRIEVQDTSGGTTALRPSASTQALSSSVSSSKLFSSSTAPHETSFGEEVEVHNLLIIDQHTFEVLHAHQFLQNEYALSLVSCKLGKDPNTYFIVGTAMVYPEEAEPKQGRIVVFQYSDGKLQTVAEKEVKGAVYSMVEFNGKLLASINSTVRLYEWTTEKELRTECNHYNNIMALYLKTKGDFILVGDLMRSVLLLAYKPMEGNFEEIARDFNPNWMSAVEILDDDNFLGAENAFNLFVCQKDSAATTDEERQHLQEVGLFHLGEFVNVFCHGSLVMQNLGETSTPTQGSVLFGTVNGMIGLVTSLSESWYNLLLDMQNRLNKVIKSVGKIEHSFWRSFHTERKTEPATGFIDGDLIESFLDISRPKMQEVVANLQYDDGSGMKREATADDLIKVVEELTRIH

NanoBRET fold increase [1]: 1 to 2 fold | NanoBRET fold increase [2]: 3 to 4 fold | NanoBRET fold increase [3]: 3 to 4 fold | NanoBRET fold increase [4]: 2 to 3 fold | NanoBRET fold increase [5]: 2 to 3 fold | NanoBRET fold increase [6]: 3 to 4 fold | NanoBRET fold increase [7]: 2 to 3 fold | NanoBRET fold increase [8]: 3 to 4 fold | NanoBRET fold increase [9]: 2 to 3 fold | NanoBRET fold increase [10]: 2 to 3 fold | NanoBRET fold increase [11]: 2 to 3 fold | NanoBRET fold increase [12]: 2 to 3 fold | NanoBRET fold increase [13]: 3 to 4 fold | EC50 [14]: > 10000 nM | EC50 [15]: > 10000 nM | NanoBRET fold increase [16]: > 4 fold | NanoBRET fold increase [17]: > 4 fold | NanoBRET fold increase [18]: > 4 fold | NanoBRET fold increase [19]: > 4 fold | NanoBRET fold increase [20]: > 4 fold | NanoBRET fold increase [21]: > 4 fold | NanoBRET fold increase [22]: > 4 fold | NanoBRET fold increase [23]: > 4 fold | EC50 [24]: < 250 nM | EC50 [25]: < 250 nM | EC50 [26]: < 250 nM
Substance: HaloTag_CDK12 (N-terminal HaloTag, G4S linker, CDK12 (713-1052)) (from UniProt Q9NYV4 713-1052) (enzyme)
